Results as given in the DeepSol protein solubility set.

Experiment: soluble on expression in E. coli; label from the status in PepcDB or PDB records
In the case of “MTTMVNVDTLPEYEKSQIKRALELGTVMTVFNARKSTPERRTVQMIMETRQVAWSKTADKIEGFLDIMEIKEIRPGKNSKDFERAKAVRHKAECCFTILYGTQFVLSTLSLATDSKEDAVKWLSGLKILHQEAMSASTPTMIESWLRKQIYSVDQTRRNSISLRELKTILPLVNFKVSGIKFLKDKLVEIGAQKDELSFEQFHLFYKKLMFDQQKSILDEFKKDSSVFILGNTDRPDASAVYLQDFQRFLLHEQQELWAQDLNKVRERMTKFIDDTMRETAEPFLFVDEFLTYLFSRENSIWDEKYDAVDMQDMNNPLSHYWISSSHNTYLTGDQLRSESSTEAYIRCLRAGCRCIELDCWDGPDGKPIIYHGWTRTTKIKFDDVVQAIRDHAFVTSSFPVILSIEEHCSVEQQRHMAKVFKEVLGDMLLTKPTEASADQLPSPSQLREKIIIKHKKLGPKGDVDVNVEDKKDEHKPQGELYMWDSIDQKWTRHYCAIADAKLSFGDDIEQAVEEEPVQDTPPTELHFGEKWFHKKVESRTSAEKLLQEYCAETGAKDGTFLVRESETFPNDYTLSFWRSGRVQHCRIRSTMENGVMKYYLTDNLTFNSIYALIQHYREAHLRCAEFELRLTDPVPNPNPHESKPWYYDSLSRGEAEDMLMRIPRDGAFLIRKREGTNSYAITFRARGKVKHCRINRDGRHFVLGTSAYFESLVELVSYYEKHALYRKMRLRYPVTPELLERYNMERDINSLYDVSRMYVDPSEINPSMPQRTVKALYDYKAKRSDELTFCRGALIHNVSKEPGGWWKGDYGTRIQQYFPSNYVEDISAGDAEEMEKQIIEDNPLGSLCKGILDLNTYNVVKAPQGKNQKAFVFILEPKKQGDPPVEFATDRVEELFEWFQSIREITWKMDTKENNMKYWERNQSIAIELSDLVVYCKPTSKTKDHLENPDFREIRSFVETKADSIVRQKPVDLLRYNQKGLTRVYPKGQRVDSSNYDPFRLWLCGSQMVALNFQTPDKYMQMNHALFSLNGRTGYVLQPESMRSEKYDPMPLESQRKILMTLTVKVLGARHLPKLGRSIACPFVEVEICGAEYDSNKFKTTVVNDNGLSPVWAPTQEKVTFEIYDPNLAFLRFVVYEEDMFSDPNFLAHATYPIKGIKSGFRSVPLKNGYSEDIELASLLVFCEMRPVLESEEELYSSCRQLRRRQEELNNQLFLYDTHQNLRGANRDALVKEFNVNENQLQLYQEKCNRRLREKRVSNSRFYS”, the “soluble on expression in E. coli” value is reported as “soluble”. With “MDSVMRKSLFLLLPLVVTNAHAVYVDVRHEYLDDSKANYDRAYISHRFANGVGFAIEAISKSGGDDTNKAFNDLETQGNEYTISYQFKTGDVAWQPGFVLETGNGYSTYKPYFRATWTLNESWWVGARYRFEYVRRSSDIRDDDTINRMDVWAGYKWNNFDWTIEGIYKKADKYDLYDGGKDNYEYNFRTAYIIDQWSPFVEVGNVSVNSNSDERQTRFRVGIGYTF” the “soluble on expression in E. coli” value was “not soluble”. With “MGHHHHHHGGHMSLETKHSNRARSRKGALRGAVLAGALMALVGCQTSPAATTSSNTGGTNMQLQLTQEWDKTFPLSAKVEHRKVTFANRYGITLAADLYLPKNRGGDRLPAIVIGGPFGAVKEQSSGLYAQTMAERGFVTLAFDPSYTGESGGQPRNVASPDINTEDFSAAVDFISLLPEVNRERIGVIGICGWGGMALNAVAVDKRVKAVVTSTMYDMTRVMSKGYNDSVTLEQRTRTLEQLGQQRWKDAESGTPAYQPPYNELKGGEAQFLVDYHDYYMTPRGYHPRAVNSGNAWTMTTPLSFMNMPILTYIKEISPRPILLIHGERAHSRYFSETAYAAAAEPKELLIVPGASHVDLYDRLDRIPFDRIAGFFDEHLEGGS” the “soluble on expression in E. coli” value was “soluble”. With “GMTSPVAVIARFMPRPDARSALRALLDAMITPTRAEDGCRSYDLYESADGGELVLFERYRSRIALDEHRGSPHYLNYRAQVGELLTRPVAVTVLAPLDEASA” the “soluble on expression in E. coli” value was “soluble”. In the case of “MTTAAKTETEDPTARRILDAALEQFTVFGLRRSSMDDVAKRAGVSRVTVYRRFGTKDALVEQTLLRENSRFFQRLDQAVAALPTMEERVVEGFVVALRHTRAHPLFGGLLRLEPEVVLPYLTVHGGSSLAATVDYLTGHLRRAQQAEGRPGDDPRPVAELMVRVAVSFLLNPASCIEMDDEDQARAFARRYLAPLLNA”, the “soluble on expression in E. coli” value is reported as “not soluble”.
